In a protein production outcome set (Wang et al. 2014):

Assay: label from the status in PepcDB records
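Note: failed if final PepcDB status was selected cloned or expressed and not failed if soluble or beyond.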

## MDHGVVLLSDDQGLQWRQASSVPLSTPLTGVSFVDAKRGWAVGHWGAILITTDGGESWQVQRLATEEDRPLFAVHFFNARQGVAVGLWSLVLTTEDGGQTWSEQPLQAPPGAKRADLNLMGLFADSRGTLYATAEHGQVLHSEDQGKNWRYLDTGYEGTLWAGAVLADGRLLLGGQRGTLLQGSADGKGFHRVPTQSKGSVTCVAVAGSRVLAVGLDGLSVQSSDGGHSFQETQTADGLSLTAALFNAEGVPVLFSRRGVMPYQELEHHHHHH
  protein production: failed

## MDHKDLAQRILRDIGGEDNIVAAAHCATRLRLVLKDTKDVDRQSLDDDPDLKGTFETGGMFQIIVGPGDVDHVFKELDDATSKDIAVSTEQLKDVVANNANWFSRAVKVLADIFVPLIPILVGGGLLMAINNVLVAQDLFGPQSLVEMFPQISGVAEMINLMASAPFAFLPVLVGFTATKRFGGNEFLGAGIGMAMVFPSLVNGYDVAATMAAGEMPMWSLFGLDVAQAGYQGTVLPVLVVSWILATIEKFLHKRLKGTADFLITPVLTLLLTGFLTFIAIGPAMRWVGDVLAHGLQGLYDFGGPVGGLLFGLVYSPIVITGLHQSFPPIELELFNQGGSFIFATASMANIAQGAACLAVFFLAKSEKLKGLAGASGVSAVLGITEPAIFGVNLRLRWPFFIGIGTAAIGGALIALFNIKAVALGAAGFLGVVSIDAPDMVMFLVCAVVTFFIAFGAAIAYGLYLVRRNGSIDPDATAAPVPAGTTKAEAEAPAEFSNDSTIIQAPLTGEAIALSSVSDAMFASGKLGSGVAIVPTKGQLVSPVSGKIVVAFPSGHAFAVRTKAEDGSNVDILMHIGFDTVNLNGTHFNPLKKQGDEVKAGELLCEFDIDAIKAAGYEVTTPIVVSNYKKTGPVNTYGLGEIEAGANLLNVAKKEAVPATP
  protein production: failed

## MDHQFGYGVEVTGLSPSVTHNDLIDFFSFSGTIQDIDIVRSGEQACTAYVMFKDSYSQETAVLLTGATILDQRVCITRWGQHHEEFDFWNATSRGFEDESDSQHYAQRSEFNAGEAVTKAQEVVKIMLATGFVLGKDALSKAKAFDESHGVSAAAVARVSQLEQRIGLTDKIFTGLEAVRMTDQRYHVSDTAKSAVFATGRTAAAAATSVVNSSYFSSGALWLSGALERAAKAASDLGTRGSRQ
  protein production: failed

## MDHTSPTYMLANLTHLHSEQLLQGLNLLRQHHELCDIILRVGDVKIHAHKVVLASVSPYFKAMFTGNLSEKENSEVEFQCIDETALQAIVEYAYTGTVFISQDTVESLLPAANLLQIKLVLKECCAFLESQLDPGNCIGISRFAETYGCRDLYLAATKYICQNFEAVCQTEEFFELTHADLDEIVSNDCLNVATEETVFYALESWIKYDVQERQKYLAQLLNSVRLPLLSVKFLTRLYEANHLIRDDRTCKHLLNEALKYHFMPEHRLSHQTVLMTRPRCAPKVLCAVGGKSGLFACLDSVEMYFPQNDSWIGLAPLNIPRYEFGICVLDQKVYVIGGIATNVRPGVTIRKHENSVECWNPDTNTWTSLERMNESRSTLGVVVLAGELYALGGYDGQSYLQSVEKYIPKIRKWQPVAPMTTTRSCFAAAVLDGMIYAIGGYGPAHMNSVERYDPSKDSWEMVASMADKRIHFGVGVMLGFIFVVGGHNGVSHLSSIERYDPHQNQWTVCRPMKEPRTGVGAAVIDNYLYVVGGHSGSSYLNTVQKYDPISDTWLDSAGMIYCRCNFGLTAL
  protein production: failed

## MDHVQISVQKLDEILKLNGSALLNRVTLDIHQQLKSHCTCVVEVAHLQHAAHTISFASGGEISDNLSYHLSGTPCEKVAKDIGEHIFYQDQVYKRFPEDQMFQDDGVQAYLGLPLKTQSGEVLGILLSTFTRSIHAKEAQDVLELHRFYANVIIHSLREKWVSERSDKLLNQLSYEVSHDNLTGLLNRSCLADTLETLTQQATRPFNLAYLDIDNFKSINDINGNYIGDQIIKFTANAIQQSLSSPNNAFRVAGDEFAFITYDEDPVAVCQEVLDKIEAGYSDKSNRISFTVSIGIARAPVHMLNSDELILNASLALKDCKKHRDTRIQHYDTHLSALYHRQTQLIEAMRIQLSTSITESHELYVVLQPIVDVNNDRWDYFEILARWNSSVYGNISPAEFIEAAEQSGLIIELGERIIELACIAKQELEAHLGYTVKLSINCSAHELVDSNRYINHLTTLLERYGHDASDFVIELTETVLLSQSGREQMVLNSLRYLGFKVALDDFGTGYSSLNYIHNYPIDSIKIDATFVRNMLSNKTSEQVVYLIAQLAQLLDVDLIAEGVEDDRALNKLIDMGCHYIQGYFYSRPHNVDELVHMINDRQVKRA
  protein production: failed

## MDIISSYSPIHVVGGGLAGSEAAWQIASAGVPVILHEMRGVRGTDAHKTDGLAELVCSNSFRSDDATSNAVGVIHAEMRMAGSLIMAAADRHQVPAGGALAVDRDGFSDAVTRAIHDHPLITVMREEITGLPPSDWDLAIVATGPLTAPSLAAAIQAETGEDSLAFFDAIAPIVYRESIDMDICWYQSRYDKVGPGGTGKDYINCPMDEAQYNAFVNALIAGDTVGFKEWEGTPYFDGCLPIEVMAERGRETLRHGPMKPMGLTNAHNPTVKAYAVVQLRQDNALGTLYNMVGFQTKLKYGAQAEIFRMIPGLENAEFARLGGLHRNTYINSPTLLDPSLTLKSRPGLRFAGQITGCEGYVESASVGLMAGRFAAAERKGEAISLPPATTALGSLLGHITGGHIVTDEEPGKRSFQPMNINFGLFPELEPGSIVKPEGVKRFRGKDKTIMKRQLIARRALADCAAWLGQTRTLAERA
  protein production: failed

## MDILDLNKAQAVQQNEQEVEDKERESKEPVVLEDLSALAWLELEEFSRLSGLPKERILELVNLGKIKSKISSNKLLIDASSGTNALIKKVENSLISMDMNGRSLEPVFVEKTINTILNLHDKVIGAKDETISAFKNENMFLKDALISMQEVYEEDKKTIDLLRDELNQAREEIEFMKRKYRLMWGKVADMSSVNKK
  protein production: failed

## MDINMFILYFFIYSVLGWAWEEVFCSISEKKLVYRGFLYGPYCPIYGFGVTTVLMMILPFQNNLWALFIFSMIICTVIEYVTATILEALFHTTWWDYHNWPLNVKGRICLPISIFWGFACIIVVRFLHPLVTEFADWVLSWGGWIIPALIVVLMLIDTIKSVTSMLSFQKVLAEFNEKLTAQANELKASVKERAKEFEEGLLKKQENVDMKIAEMEAKRKQDKELAASMRKLKFNERRMLKSFPKMKVKRAAPFKNFNKSILRVDKQKRK
  protein production: failed

## MDINNKARIHWACRRGMRELDISIMPFFEHEYDSLSDDEKRIFIRLLECDDPDLFNWLMNHGKPADAELEMMVRLIQTRNRERGPVAI
  protein production: not failed

## MDINYERPDPYYLLNKIDKEEKNKNRGKLKIFFGYAAGVGKTYAMLRAAHYMKELGKDIVIGYIEPHARMDTMSLTKGLPQIPVKNIDYKGVILREFDVDKALLRKPEIILVDELAHTNAKSQRNKKRWKDIEELLDAGIDVYTTLNVQHIESLNDIVANITHVSVRETIPDKVFDDADKVELIDIEPDELLKRFTDGKIYRKEQVKRAFNNFFTKNNLYALREIALRRTADRVNFEIEIARLSKGQITVMATSDQILACIGTSPSSARIIRTAARMAESYHSKWIALYVDTGRSLGKADKETLNANFNLVELLGGELVTVHGENVADQIIRYAELRNTTKIVIGKNHKRTGTLLHFYAKDVVDKLMDSNSYIDVYMIPNSSYYRDHKNSILSKISIQHKGSVKDVLKAIIIMAITTDIAELFSYMGFKDVNVIMIFILGVIIVYMATKGQIMGIISSIAAVLVFNYRFTEPKNSFIVYDKSYLVTFPIMMIVAFIIGSLTNKVQKEAQDSNMREKRTQTLYIVSGKLLSAVGTSEVVSIGIKYISRLVNRNVICYLADTSNKLSTPFVYKKDKGAKEEIIMSKDENAAAYWTFLNGKESGCGTSTFYRAKGYYIPIKIKNKVLGVIGVSCPSGPLRPQKKAVVDTVTGQIAIALDREILSKEQEKSKVEIERERLRSNLLRSISHDLRSPLAGIKGAASTILENGELIDEKRKQELINGIYEDTEWLIRLIENLLSMTKFDEGNTKIKKDVELVEEVVSEAVQRSSKYFKNHKIKVSVPEDVIMVSMDGSLIEQVIINLLDNASKFSPKGSTIEIKVYEKKKDVVFEIIDEGQGISEDILPNIFDRFFTNGSKISDSRRGVGLGLAICKSIVEAHGGKIEAVNKGSGGAIFKFNIPKEL
  protein production: failed

## MDISGRDVETRLTLAREFMSGVDELPTVPDIVLRIAGKLNDPDVAIDEVADLLLQDQVLTARVVHLANSPLYSAARPISSIRDAVIYLGLDLLREAIFTCAIVDLFKTGKGPLNRSTLWAHSLGVARIAKLIAERTGFLNPVNVYVAGLLHDVGEVFINFFRGKEFSQVVTLVDEEKITFGQAEERLFGTSHCEVGFALAKRWSLNEFICDTILYHHDIEAVPYKQAAIVAMVAFADEYCTLRRLGFEGHKPVDSVRTLLENHPSWGVIRRSLGGSDFDEKLIVAELDSSIVEIRAAVDELFLL
  protein production: failed

## MDISILQAVLIGLWTAFCFSGMLLGLYTNRCIVLSLGVGVILGDIQTALAVGAISELAYMGFGVGAGGTVPPNPIGPGIFGTLMAITTAGTKGKITPEAALALSTPIAVGIQFLQTATYTAFAGAPETAKKALQAGNFRGFKIAANGTIWAFAGLGFGLGVLGALSTQTLTDLFALIPPVLLNGLTLAGKMLPAIGFAMILSVMAKKELIPYILLGYVLAVYFGLPVLTPTANGDGVLTSVATNSVLGVPTIGVAIIATIFALLDIFRKPAAPTKETKTEGDNQDDWI
  protein production: failed

## MDITEKLRLITRNAEEVVTEEELRQLIETKEKPRAYVGYEPSGEIHLGHMMTVQKLMDLQEAGFEIIVLLADIHAYLNEKGTFEEIAEVADYNKKVFIALGLDESRAKFVLGSEYQLSRDYVLDVLKMARITTLNRARRSMDEVSRRKEDPMVSQMIYPLMQALDIAHLGVDLAVGGIDQRKIHMLARENLPRLGYSSPVCLHTPILVGLDGQKMSSSKGNYISVRDPPEEVERKIRKAYCPAGVVEENPILDIAKYHILPRFGKIVVERDAKFGGDVEYASFEELAEDFKSGQLHPLDLKIAVAKYLNMLLEDARKRLGVSV
  protein production: not failed

## MDIVTNKIVVEKYNFETTMEENQPFENKIELEVHEVEPVDGNVELMAKGKIFKITIPFLLVLENFRIDGRISRIIQLKDFFGQFSDLEAKDVEGLSNPLIDYIKRLTYDVTEIAFDEPGVSLDF
  protein production: failed

## MDIYIGFSLQIYVIQVRRKPTENLQKTYKKSGNGILFICLIANCEICGTNLLTSELYIPTFTSKTKVMKKRVSAVVIVLVCLGGVACIKTLSTSSVGLPQLAFDNIEALASGESSAYRCYGIGDVDCHGDKVDKMYSGYSLK
  protein production: failed

## MDKDYYKIMGVSQDASEKDIKMAYRKLARKYHPDISKEPDAEERFKEMAEAYEVLKDPKKRSEYDQYLKYKEFNPQSDGFTGRRTQEQPFQEFHFDSDFFETLFGHSRYQQQPMTGQNYHGKITISLEEAYHGAVKNLQVPVEQGTETKIQTLKVKIPAGVKSGQQIRLAGQGGSGSGGGARGDLYLTVEVMKHPIFDVMENDIYLTLPVTPWEAALGATVVIPTLAGKIDLKIPPGSQGGQKLRIKNRGLPGSPPGNQYVLLKIITPPAQTEEAKALYKKMAEVMPYNPRKTMGV
  protein production: failed

## MDKEQRNIVVFNASKRELFTSSSGYKSLQKKLRAQWKIQSIKEELTLEKLQGVKLWITAGPREKFTAAELEVLKQYLDSGGALLVMIGEGGELKYDTNINFLLEEFGIMVNNDAVIRNVYYKYFHPKEALVSNGVLNREISRAAGKVVTGVIDEENTGNNSQALTFVYPYGATLNVMKPAVAILSTGSVCFPLNRPVLAFHHSKNAGKLAVLGSCHMFSDQYLDKEENSRIMDVVFQWLTTDSIHLNQIDAEDPEITDYMMLPDTGSLSERLRVCLQEGDENPRDFTSLFDMSLLKLHTNTLPSVLDAYKQLNVKHEALQLITPQFETPLPPLQPAVFQPAFRDLPPPMLDLFDLDETFSSEKVRLAQLSNKCTDDDLEFYVRKCGDILGVTGNLDKDKRDAKHILEHVFFQVVEFKKLNEEHDVDTAEARFSMY
  protein production: not failed
